This note sets out measurements from publication PMC4520604, “Affinity Maturation of Monoclonal Antibody 1E11 by Targeted Randomization in CDR3 Regions Optimizes Therapeutic Antibody Targeting of HER2-Positive Gastric Cancer” (PLoS ONE, 2015).

Common to all, as to settings: both partners purified
The target in experiment [1] is T1, HER2-ECD-His protein (Homo sapiens, UniProt P04626).
T1 construct: human epidermal growth factor receptor 2 (HER2), extracellular region (ECD); The SPR methods name HER2-ECD-His; The ELISA legends say only 'HER2-ECD protein'; also called HER2-ECD protein; extracellular region (ECD) of HER2; source: Freestyle 293 system, secreted, purified (Ni-NTA)
In words: SPR; affinity: antibody captured at about 50 RU by goat anti-human IgG (γ) on CM5; HER2-ECD-His injected at 0 to 640 nM; fit to 1:1 (Langmuir) model.

Experiment [2] concerns the target T1, HER2-ECD-His protein. The experiment can be described thus: SPR; k off analysis of Fab: HER2-ECD-His immobilised on CM5 by amine coupling at about 2,000 RU; Fab injected at 2 μg/mL, 50 μL/minute.
The target in experiment [3] is T1, HER2-ECD-His protein. The experiment can be described thus: SPR; k off analysis of IgG: antibody captured at 1 μg/mL by goat anti-human IgG (γ) immobilised on CM5; HER2-ECD-His injected at 160 nM.
Experiment [4] has as its target T1, HER2-ECD-His protein. The experiment can be described thus: SPR; affinity: antibody captured at about 50 RU by goat anti-human IgG (γ) on CM5; HER2-ECD-His injected at 0 to 640 nM; fit to 1:1 (Langmuir) model. The source holds these as a separate data set.

B1: chimeric 1E11 (antibody, V domains shown)
VH: EVKLVESGGGLVQPGGSLKLSCAASGFTFSSYTMSWVRQTPEKRLEWVAYISNGGGSTYYPDTVKGRFTISRDNAKNTLYLQMSSLKSEDTAMYYCARHLGGTASFDYWGQGTTVTVSS
VL: DIQMTQSPASQSASLGESVTITCLASQTIGTWLAWYQQKPGKSPQLLIYVATSLADGVPSRFSGSGSGTKFSFKISSLQAEDFVSYYCQQLYSTPWTFGGGTKLELK
notes: VH of murine 1E11; VL of murine 1E11; Chimeric IgG; also called ch1E11; parental ch1E11; source: Freestyle 293 system, purified (protein-A)
In the case of B1, in the experiment with HER2-ECD-His protein [1], the Kd is 23 nM.

B2: hz1E11 Fab, T99HA mutant (Fab, V domains shown)
VH: EVQLVESGGGLVQPGGSLRLSCAASGFTFSSYTMSWVRQAPGKGLEWVAYISNGGGSTYYPDTVKGRFTISRDNAKNSLYLQMNSLRAEDTAVYYCARHLGGAASFDYWGQGTLVTVSS
VL: DIQMTQSPSSLSASVGDRVTITCLASQTIGTWLAWYQQKPGKAPKLLIYVATSLADGVPSRFSGSGSGTDFTLTISSLQPEDFATYYCQQLYSTPWTFGQGTKVEIK
notes: as the VH of m4 (hz1E11); numbers count on: Kabat; as the VL of m4 (hz1E11); Fab in the vector pComb3X; source: E. coli DH5α, periplasmic extract, purified (IMAC)
For B2, in the experiment with HER2-ECD-His protein [2], the “fold increase of k off (against the parental Fab)” value is 32 fold.

B3: L-1F11 + H-1B12 (IgG) (antibody, V domains shown)
VH: EVQLVESGGGLVQPGGSLRLSCAASGFTFSSYTMSWVRQAPGKGLEWVAYISNGGGSTYYPDTVKGRFTISRDNAKNSLYLQMNSLRAEDTAVYYCARNYGGTASFDYWGQGTLVTVSS
VL: DIQMTQSPSSLSASVGDRVTITCLASQTIGTWLAWYQQKPGKAPKLLIYVATSLADGVPSRFSGSGSGTDFTLTISSLQPEDFATYYCQQTAFSPWTFGQGTKVEIK
notes: as the VH of m4 (hz1E11); numbers count on: Kabat; as the VL of m4 (hz1E11); IgG; source: Freestyle 293 system, purified (protein-A)
In the experiment with HER2-ECD-His protein [3], B3 registered a koff of 3.45e-05 s⁻¹.

B4: hz1E11 Fab, G97HA mutant (Fab, V domains shown)
VH: EVQLVESGGGLVQPGGSLRLSCAASGFTFSSYTMSWVRQAPGKGLEWVAYISNGGGSTYYPDTVKGRFTISRDNAKNSLYLQMNSLRAEDTAVYYCARHLAGTASFDYWGQGTLVTVSS
VL: DIQMTQSPSSLSASVGDRVTITCLASQTIGTWLAWYQQKPGKAPKLLIYVATSLADGVPSRFSGSGSGTDFTLTISSLQPEDFATYYCQQLYSTPWTFGQGTKVEIK
notes: as the VH of m4 (hz1E11); numbers count on: Kabat; as the VL of m4 (hz1E11); Fab in the vector pComb3X; also called G97A; source: E. coli DH5α, periplasmic extract, purified (IMAC)
As to B4, the “fold increase of k off (against the parental Fab)” value with HER2-ECD-His protein [2] was found to be 17 fold.

B5: L-1F11 + H-2A7 (IgG) (antibody, V domains shown)
VH: EVQLVESGGGLVQPGGSLRLSCAASGFTFSSYTMSWVRQAPGKGLEWVAYISNGGGSTYYPDTVKGRFTISRDNAKNSLYLQMNSLRAEDTAVYYCARNFGGTASFDYWGQGTLVTVSS
VL: DIQMTQSPSSLSASVGDRVTITCLASQTIGTWLAWYQQKPGKAPKLLIYVATSLADGVPSRFSGSGSGTDFTLTISSLQPEDFATYYCQQTAFSPWTFGQGTKVEIK
notes: as for B3
On to B5, for which, in the experiment with HER2-ECD-His protein [3], the off-rate constant (koff) was found to be 4.5e-05 s⁻¹.

B6: L-1A12 + H-2A7 (IgG) (antibody, V domains shown)
VH: EVQLVESGGGLVQPGGSLRLSCAASGFTFSSYTMSWVRQAPGKGLEWVAYISNGGGSTYYPDTVKGRFTISRDNAKNSLYLQMNSLRAEDTAVYYCARNFGGTASFDYWGQGTLVTVSS
VL: DIQMTQSPSSLSASVGDRVTITCLASQTIGTWLAWYQQKPGKAPKLLIYVATSLADGVPSRFSGSGSGTDFTLTISSLQPEDFATYYCQQNAYAPWTFGQGTKVEIK
notes: as for B3
As to B6, in the experiment with HER2-ECD-His protein [3], the koff was determined as 2.59e-05 s⁻¹.

B7: clone 1F11 (IgG) (antibody, V domains shown)
VH: EVQLVESGGGLVQPGGSLRLSCAASGFTFSSYTMSWVRQAPGKGLEWVAYISNGGGSTYYPDTVKGRFTISRDNAKNSLYLQMNSLRAEDTAVYYCARHLGGTASFDYWGQGTLVTVSS
VL: DIQMTQSPSSLSASVGDRVTITCLASQTIGTWLAWYQQKPGKAPKLLIYVATSLADGVPSRFSGSGSGTDFTLTISSLQPEDFATYYCQQTAFSPWTFGQGTKVEIK
notes: as the VH of m4 (hz1E11); CDR-H3 HLGGTASFDY; as the VL of m4 (hz1E11); numbers count on: Kabat; IgG; also called L-1F11; source: Freestyle 293 system, purified (protein-A)
Regarding B7, in the experiment with HER2-ECD-His protein [4], the Kd worked out at 1.4 nM, the off-rate (koff) worked out at 0.00012 s⁻¹ and the on-rate constant (kon) worked out at 90000 M⁻¹ s⁻¹. In the experiment with HER2-ECD-His protein [3], the koff came to 5.89e-05 s⁻¹.

B8: clone 1A12 (IgG) (antibody, V domains shown)
VH: EVQLVESGGGLVQPGGSLRLSCAASGFTFSSYTMSWVRQAPGKGLEWVAYISNGGGSTYYPDTVKGRFTISRDNAKNSLYLQMNSLRAEDTAVYYCARHLGGTASFDYWGQGTLVTVSS
VL: DIQMTQSPSSLSASVGDRVTITCLASQTIGTWLAWYQQKPGKAPKLLIYVATSLADGVPSRFSGSGSGTDFTLTISSLQPEDFATYYCQQNAYAPWTFGQGTKVEIK
notes: as the VH of m4 (hz1E11); CDR-H3 HLGGTASFDY; as the VL of m4 (hz1E11); numbers count on: Kabat; IgG; also called L-1A12; source: Freestyle 293 system, purified (protein-A)
In the experiment with HER2-ECD-His protein [4], B8 came in with a Kd of 1.9 nM, an off-rate (koff) of 0.00012 s⁻¹ and an on-rate constant (kon) of 64000 M⁻¹ s⁻¹. The koff with HER2-ECD-His protein [3] is 2.8e-05 s⁻¹.

B9: L-1A12 + H-1B12 (IgG) (antibody, V domains shown)
VH: EVQLVESGGGLVQPGGSLRLSCAASGFTFSSYTMSWVRQAPGKGLEWVAYISNGGGSTYYPDTVKGRFTISRDNAKNSLYLQMNSLRAEDTAVYYCARNYGGTASFDYWGQGTLVTVSS
VL: DIQMTQSPSSLSASVGDRVTITCLASQTIGTWLAWYQQKPGKAPKLLIYVATSLADGVPSRFSGSGSGTDFTLTISSLQPEDFATYYCQQNAYAPWTFGQGTKVEIK
notes: as the VH of m4 (hz1E11); numbers count on: Kabat; as the VL of m4 (hz1E11); IgG; also called combination of the VH of 1B12 and VL of 1A12; source: Freestyle 293 system, purified (protein-A)
B9 registered an off-rate (koff) with HER2-ECD-His protein [3] of 1.87e-05 s⁻¹.
